The values that follow come from publication PMC3796545, “Protein-Protein Interactions as a Strategy towards Protein-Specific Drug Design: The Example of Ataxin-1” (PLoS ONE, 2013).

Test [1] addresses ATX1 AXH (residues A567-K689 of human ATX1) (human). The test can be described thus: NMR relaxation (T1, T2, rotational correlation time); free AXH, before addition of the peptide; 27°C, 600 MHz.
For test [2], the target named is T1, ATX1 AXH (residues A567-K689 of human ATX1) (human).
T1 chain: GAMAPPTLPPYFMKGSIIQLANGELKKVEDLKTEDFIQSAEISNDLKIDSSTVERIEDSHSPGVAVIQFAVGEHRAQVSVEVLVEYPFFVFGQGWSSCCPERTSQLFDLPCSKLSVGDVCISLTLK
The test can be described thus: ITC. In general terms: ITC needs no label: the signal is the heat of the interaction.

The target of test [3] is ATX1 AXH (residues A567-K689 of human ATX1) (human). Briefly: ITC; 0.041 mM AXH in the cell, 0.410 mM peptide in the syringe, 21 aliquots; 25°C; 50 mM Tris-HCl pH 7, 50 mM NaCl, 2 mM TCEP; single-site model; averages of three measurements.

On to “ATX1 AXH (residues A567-K689 of human ATX1) (domain or fragment)”, for which the stoichiometry N – broadly, the number of molecules, sites or subunits per partner or assembly – in test [1] came to 2.

For VFPWASLVPFLAPSQ [L-CICp with H38 mutated to alanine], the affinity in test [2], expressed as Kd, was 50 nM.

Regarding PWHSLVPFLAPSQ [CICp], the Kd (usually the equilibrium constant for the complex coming apart) in test [3] stood at 8000 nM.

Molecule VFPAHSLVPFLAPSQ [L-CICp with W37 mutated to alanine] came in with a fold change of Kd against wild-type L-CICp in test [3] of 100 fold. The Kd in test [2] amounted to 2600 nM.

For VFPWHSLVPFLAPSQ [L-CICp], the values for the Kd in test [3] and in test [2] were 33 nM and 30 nM, respectively.

The molecule VFPWHSLVPFLAASQ [L-CICp with P46 mutated to alanine] returned a Kd in test [2] of 20 nM.

With VFPWHSAVPFLAPSQ [L-CICp with L40 mutated to alanine], in test [3], the fold change of Kd against wild-type L-CICp was found to be 10 fold. The affinity in test [2], expressed as Kd, was 500 nM.
